T1: alkaliphilic Bacillus sp. N16-5 IspH protein, wild type, SEQ ID NO: 2 (Salipaludibacillus agaradhaerens, UniProt A0A9Q4B1R3)
T1 sequence (A0A9Q4B1R3 1-318): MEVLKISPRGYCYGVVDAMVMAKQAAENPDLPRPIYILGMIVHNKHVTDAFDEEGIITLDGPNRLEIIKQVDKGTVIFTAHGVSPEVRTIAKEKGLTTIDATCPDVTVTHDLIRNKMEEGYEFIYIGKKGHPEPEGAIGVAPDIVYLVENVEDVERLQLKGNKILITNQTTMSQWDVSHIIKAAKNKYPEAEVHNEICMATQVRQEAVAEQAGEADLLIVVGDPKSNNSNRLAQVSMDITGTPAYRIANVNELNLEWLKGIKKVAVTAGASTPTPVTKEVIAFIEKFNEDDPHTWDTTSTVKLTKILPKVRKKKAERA


Key:
[1] = molecular target: T1, alkaliphilic Bacillus sp. N16-5 IspH protein, wild type, SEQ ID NO: 2; experiment: Kinetic parameters of the enzymatic reaction converting DMAPP to isoamylene by wild-type IspH protein; assay type: biochemical; conditions: DMAPP as substrate to produce isoamylene; DMAPP 0-1.0 mM; pH 7.8, 37° C., 1 mM NADPH, ferredoxin/ferredoxin-NADP+ reductase, anaerobic
Method: Under anaerobic conditions, in a sealed 5 ml chromatotube, IspH protein and its mutants were determined for their activity, wherein the reaction system comprised: 150 mM NaCl, 20 mM Tris-HCl (pH 7.8), 2 mM DTT, 1 mM NADPH, 1 mM DMAPP, 20 μM ferredoxin, 5 μM ferredoxin-NADP^+ reductase, and 0.5 μM IspH protein or its mutants (H131N and E133Q) obtained above; the total reaction volume was 500 μl; and the reaction condition was incubation at 37° C. for 1 h.

[2] = test system: plant-derived isoprene synthase (IspS; EC 4.2.3.27); conditions: DMAPP as substrate to produce isoprene; background art; cited from earlier work
[3] = In vitro activity assay using HMBPP as a substrate (headspace gas GC-MS); assay type: biochemical; conditions: for Production of 2-methyl-2-butene or not / Production of 3-methyl-1-butene or not / Isoprene produced in the reaction system: 1 mM HMBPP, 0.5 μM protein, 37° C. 1 h, headspace gas; for Isoprene produced in the reaction system: ferredoxin, FNR, NADPH, anaerobic
Method: (§1) Under anaerobic conditions, in a sealed 5 ml chromatotube, IspH protein and its mutants were determined for their activity, wherein the reaction system comprised: 150 mM NaCl, 20 mM Tris-HCl (pH 7.8), 2 mM DTT, 1 mM NADPH, 1 mM HMBPP, 20 μM ferredoxin, 5 μM ferredoxin-NADP^+ reductase, and 0.5 μM IspH protein or its mutants (H131N and E133Q) obtained above; the total reaction volume was 500 μl; and the reaction condition was incubation at 37° C. for 1 h.
After the reaction, the headspace gas in the chromatotube was collected, and was subjected to gas chromatography-mass spectrometry (GC-MS). In brief, the gas was analyzed by Agilent Technologies 7890B GG/5977A MSD equipped with Agilent HP-PLOT Al2O3/S GC column (25 m, 0.32 mm, 8.00 μm, 7 inch cage), wherein He gas was used as a carrier gas at a flow rate of 2 ml/min. Later, the experimental data of the test sample (peak retention time, peak area, mass spectrogram, etc.) was compared with the experimental data of the standard substance (isoprene, 3-methyl-1-butene and 2-methyl-2-butene) to identify the gas components and perform quantitative analysis.

[4] = In vitro activity assay using DMAPP as a substrate (headspace gas GC-MS, kinetic parameters); assay type: biochemical; conditions: 1 mM DMAPP, 0.5 μM protein, 37° C. 1 h
Method: as §1, with “DMAPP,” for “HMBPP,”
After the reaction, the headspace gas in the chromatotube was collected, and was subjected to gas chromatography-mass spectrometry (GC-MS).
In order to determine the kinetic parameters of the wild-type IspH protein, DMAPP at different concentrations (0, 0.1, 0.2, 0.3, 0.4, 0.5, 1.0 mM) was used to repeat the experiment.

[5] = Acid treatment of the reaction solution to determine DMAPP (isoprene in headspace gas by GC-MS); assay type: biochemical; conditions: reaction solution of the HMBPP assay, 8M H2SO4, 37° C. 30 min; indicates DMAPP
Method: as §1
In addition, after the reaction, the reaction solution in the chromatotube was also analyzed to determine whether IPP and DMAPP were produced. Since DMAPP can spontaneously produce isoprene under acidic conditions, the amount of DMAPP in the reaction solution can be determined by determining the amount of isoprene produced in the reaction solution under acidic conditions. In brief, under anaerobic conditions, 50 μL reaction solution was put in another 5 ml chromatotube, and diluted with cold water to a volume of 500 μL, and an equal volume of 8M H2SO4 was added; then, the chromatotube was sealed immediately, and incubated at 37° C. for 30 min. After the incubation, the amount of isoprene in the headspace gas was determined by the above-mentioned GC-MS method, to determine whether the reaction solution contained DMAPP or not.

[6] = In vitro activity assay using IPP as a substrate; assay type: biochemical
Method: as §1, with “DMAPP,” for “HMBPP,”
In addition, IPP was used as a substrate to repeat the experiment.

| Molecule | maximum reaction activity [1] | Km value [2] | Production of 2-methyl-2-butene or not [3] | Production of 3-methyl-1-butene or not [3] | Isoprene produced in the reaction system [3] [μg L^−1 OD^−1] | activity of converting HMBPP to isoamylene directly ([3]; headspace gas in different phases of the HMBPP assay) | products formed from HMBPP as a substrate (isoprene, isoamylene, IPP, DMAPP) ([3]; summary of the HMBPP assay) | conversion of DMAPP to isoamylene (2-methyl-2-butene and 3-methyl-1-butene) [4] | isoprene produced by treating the reaction solution with acid [5] [μg L^−1 OD^−1] | catalytic activity on IPP [6] |
| --- | --- | --- | --- | --- | --- | --- | --- | --- | --- | --- |
| CC(C)=CCOP(=O)(O)OP(=O)(O)O [DMAPP, dimethylallyl pyrophosphate] | about 6.2 nmol min^−1 mg^−1 | reaches the level of mM | – | – | – | – | – | – | – | – |
| wild-type IspH: IspH protein from alkaliphilic Bacillus sp. N16-5, amino acid sequence SEQ ID NO: 2 (protein, Bacillus sp. N16-5) MEVLKISPRGYCYGVVDAMVMAKQAAENPDLPRPIYILGMIVHNKHVTDAFDEEGIITLDGPNRLEIIKQVDKGTVIFTAHGVSPEVRTIAKEKGLTTIDATCPDVTVTHDLIRNKMEEGYEFIYIGKKGHPEPEGAIGVAPDIVYLVENVEDVERLQLKGNKILITNQTTMSQWDVSHIIKAAKNKYPEAEVHNEICMATQVRQEAVAEQAGEADLLIVVGDPKSNNSNRLAQVSMDITGTPAYRIANVNELNLEWLKGIKKVAVTAGASTPTPVTKEVIAFIEKFNEDDPHTWDTTSTVKLTKILPKVRKKKAERA | – | – | yes | yes | 104.4 | does not have the activity of converting HMBPP to isoamylene directly | can use HMBPP as a substrate to produce isoprene, isoamylene, IPP and DMAPP | produce isoamylene | 696.3 | none |
| IspH-E133Q: IspH mutant, glutamic acid to glutamine at position 133 of SEQ ID NO: 2 (SEQ ID NO: 4) (protein, Mutant protein E133Q) MEVLKISPRGYCYGVVDAMVMAKQAAENPDLPRPIYILGMIVHNKHVTDAFDEEGIITLDGPNRLEIIKQVDKGTVIFTAHGVSPEVRTIAKEKGLTTIDATCPDVTVTHDLIRNKMEEGYEFIYIGKKGHPQPEGAIGVAPDIVYLVENVEDVERLQLKGNKILITNQTTMSQWDVSHIIKAAKNKYPEAEVHNEICMATQVRQEAVAEQAGEADLLIVVGDPKSNNSNRLAQVSMDITGTPAYRIANVNELNLEWLKGIKKVAVTAGASTPTPVTKEVIAFIEKFNEDDPHTWDTTSTVKLTKILPKVRKKKAERA | – | – | no | no | 106.4 | – | – | – | 6.1 | – |
